T1: human GFRAL (UniProtKB-Q6UXVO) (human, UniProt Q6UXV0 19-394)
T1 sequence (looked up): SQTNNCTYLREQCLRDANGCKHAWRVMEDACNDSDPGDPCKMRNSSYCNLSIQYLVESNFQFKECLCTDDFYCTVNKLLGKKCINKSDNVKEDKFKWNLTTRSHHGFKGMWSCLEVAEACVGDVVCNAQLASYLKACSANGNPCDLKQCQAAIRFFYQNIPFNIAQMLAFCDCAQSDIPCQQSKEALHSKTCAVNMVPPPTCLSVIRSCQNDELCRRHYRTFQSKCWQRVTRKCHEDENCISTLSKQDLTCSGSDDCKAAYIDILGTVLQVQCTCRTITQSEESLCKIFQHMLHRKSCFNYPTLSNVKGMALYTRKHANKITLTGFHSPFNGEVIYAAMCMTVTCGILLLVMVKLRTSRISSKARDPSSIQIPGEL


Biological target: T1, human GFRAL (UniProtKB-Q6UXVO)
Assay: cell-based or functional assay

Binder | Relative activity ratio (native GDF15 EC50: Fc-GDF15 construct EC50), ERK1/2 phosphorylation HTRF in HEK293T cells expressing human GFRAL and RET [ratio]
natural GDF15 (ACROBiosystems, GD5-H5149) (ligand) ARNGDHCPLGPGRCCRLHTVRASLEDLGWADWVLSPREVQVTMCIGACPSQFRAANMHAQIKTSLHRLKPDTVPAPCCVPASYNPMVLIQKTDTGVSLQTYDDLLAKDCHCI | 1
Fc-GDF15 fusion protein M10 (Fc fusion) APEAAGGPSVFLFPPKPKDTLMISRTPEVTCVVVDVSQEDPEVQFNWYVDGVEVHNAKTKPREEQFNSTYRVVSVLTVLHQDWLNGKEYKCKVSNKGLPSSIEKTISKAKGQPREPQVYTLPPSQQEMTKNQVSLTCLVKGFYPSDIAVEWESNGQPENNYKTTPPVLDSDGSFFLYSRLTVDKSRWQEGNVFSCSVMHEALHNHYTQKSLSLSLGGGGGSGGGGSAPAPAPAPAPAPAPAPAPAPGGGGSGGGGSDHCPLGPGRCCRLHTVRASLEDLGWADWVLSPREVQVTMCIGACPSQFRAANMHAQIKTSLHRLKPDTVPAPCCVPASYNPMVLIQKTDTGVSLQTYDDLLAKDCHCI | 1.62
Fc-GDF15 fusion protein M20 (Fc fusion) APEAAGGPSVFLFPPKPKDTLMISRTPEVTCVVVDVSQEDPEVQFNWYVDGVEVHNAKTKPREEQFNSTYRVVSVLTVLHQDWLNGKEYKCKVSNKGLPSSIEKTISKAKGQPREPQVYTLPPSQEEMTKNQVSLTCLVKGFYPSDIAVEWESNGQPENNYKTTPPVLDSDGSFFLYSRLTVDKSRWQEGNVFSCSVMHEALHNHYTQESLSLSLGGGGGSGGGGSAPAPAPAPAPAPAPAPAPAPGGGGSGGGGSEHCPLGPGRCCRLHTVRASLEDLGWADWVLSPREVQVTMCIGACPSQFRAANMHAQIKTSLHRLKPDTVPAPCCVPASYNPMVLIQKTDTGVSLQTYDDLLAKDCHCI | 3.08

The next lines start with the values.

Relative activity ratio (native GDF15 EC50: Fc-GDF15 construct EC50), ERK1/2 phosphorylation HTRF in HEK293T cells expressing human GFRAL and RET [ratio] | Binder
1.33 | Fc-GDF15 fusion protein M9 (Fc fusion) APEAAGGPSVFLFPPKPKDTLMISRTPEVTCVVVDVSQEDPEVQFNWYVDGVEVHNAKTKPREEQFNSTYRVVSVLTVLHQDWLNGKEYKCKVSNKGLPSSIEKTISKAKGQPREPQVYTLPPSQREMTKNQVSLTCLVKGFYPSDIAVEWESNGQPENNYKTTPPVLDSDGSFFLYSRLTVDKSRWQEGNVFSCSVMHEALHNHYTQKSLSLSLGGGGGSGGGGSAPAPAPAPAPAPAPAPAPAPGGGGSGGGGSDHCPLGPGRCCRLHTVRASLEDLGWADWVLSPREVQVTMCIGACPSQFRAANMHAQIKTSLHRLKPDTVPAPCCVPASYNPMVLIQKTDTGVSLQTYDDLLAKDCHCI
2.02 | Fc-GDF15 fusion protein M11 (Fc fusion) APEAAGGPSVFLFPPKPKDTLMISRTPEVTCVVVDVSQEDPEVQFNWYVDGVEVHNAKTKPREEQFNSTYRVVSVLTVLHQDWLNGKEYKCKVSNKGLPSSIEKTISKAKGQPREPQVYTLPPSQAEMTKNQVSLTCLVKGFYPSDIAVEWESNGQPENNYKTTPPVLDSDGSFFLYSRLTVDKSRWQEGNVFSCSVMHEALHNHYTQKSLSLSLGGGGGSGGGGSAPAPAPAPAPAPAPAPAPAPGGGGSGGGGSDHCPLGPGRCCRLHTVRASLEDLGWADWVLSPREVQVTMCIGACPSQFRAANMHAQIKTSLHRLKPDTVPAPCCVPASYNPMVLIQKTDTGVSLQTYDDLLAKDCHCI
1.89 | Fc-GDF15 fusion protein M13 (Fc fusion) EAAGGPSVFLFPPKPKDTLMISRTPEVTCVVVDVSQEDPEVQFNWYVDGVEVHNAKTKPREEQFNSTYRVVSVLTVLHQDWLNGKEYKCKVSNKGLPSSIEKTISKAKGQPREPQVYTLPPSQEEMTKNQVSLTCLVKGFYPSDIAVEWESNGQPENNYKTTPPVLDSDGSFFLYSRLTVDKSRWQEGNVFSCSVMHEALHNHYTQESLSLSLGGGGGSGGGGSAPAPAPAPAPAPAPAPAPAPGGGGSGGGGSDHCPLGPGRCCRLHTVRASLEDLGWADWVLSPREVQVTMCIGACPSQFRAANMHAQIKTSLHRLKPDTVPAPCCVPASYNPMVLIQKTDTGVSLQTYDDLLAKDCHCI
